Where two headings read alike, the source gives them in different places.
Legend:
[1] = molecular target: T1, PKCα (Homo sapiens, UniProt P17252); settings: optimal PKCα peptide substrate selected from the literature; cited from earlier work
[2] = molecular target: T1, PKCα; experiment: Kinetic parameters of the peptides with PKCα (continuous fluorescence assay); assay type: biochemical; settings: for Km / Vmax: with PKCα
Excerpt: To solve for enzyme kinetic parameters for this reaction, determination of the initial rate of product formation from the increase in fluorescence intensity is necessary. With this sensor, a correction for the decrease in fluorescence intensity due to the starting material being consumed is needed to determine the rate of product formation from the initial slope. The fluorescence intensity at any given point can be determined from the following equation: I(t)=fSs(t)+fPP(t) (1) where I(t) is the fluorescence intensity, S(t) is the amount of substrate in μM, P(t) is the amount of product in μM, fS is the fluorescence intensity per μM of substrate, and fP is fluorescence intensity per μM of product. The amount of substrate and product at any given point are related by: S(t)+P(t)=S0 (2) where S0 is the initial amount of substrate. Substitution of (2) into (1) followed by rearrangement, yields:
[formula] The initial slope of the reaction, dI(t)/dt, was measured within the first 5% of substrate turnover. The constants fP and fS were calculated from the slope of a line of fluorescence intensity versus concentration of P and S, respectively. A linear fit of a Hanes plot ([S]/V vs. […]) was used to find Km and Vmax.
For in vitro applications, the concentration of kinase can range from about 0.5 nM to about 1 μM, typically not more than about 500 nM, and preferably not more than about 250 nM. The concentrations of sensor can vary, but usually ranges between about 0.01 μM to 0.1 mM. Adenosine 5′-triphosphate (ATP) is the preferred source of phosphate, in stock solutions of about 10-100 mM. Because most kinases have Km values for ATP in the range of about 10-150 μM, saturating concentrations of ATP are used to arrive at values of Km and Vmax for the substrates. For in vivo applications, when the sensor is internalized into a cell, sufficient kinases, Mg^2+ and phosphate sources exist in the cytosol. For in vivo sensing, a cellular internalization sequence can be included in the sensor design. Suitable cellular internalization sequences include Penetratins, HIV-Tat domains and poly-arginine sequences (Lindgren, M. et al. Trends Pharmacol. Sci. 2000, 21, 99-103; Wadia, J. S. et al. Curr Opin. Biotech. 2002, 13, 52-56; Carrigan, C. N. Analyt. Biochem. 2005, 341, 290-298).
For applications in which the kinase is dependent on cofactors, a source of cofactor is also included in the sample. For example, for PKC, sources of Ca^2+, phospholipid and diacylglycerol are needed.
(§1) Fluorescence experiments were performed on a Fluoromax 3 from Jobin Yvon. 5 nm emission and excitation slit widths were used. For all experiments, an excitation wavelength of 360 nm was used. Enzyme assays were performed by monitoring emission at 485 nm.

[3] = system: PKC isozymes present in cells; experiment: Use of sensor in cell lysates
Excerpt: In comparison, the chemosensors with the extended recognition domain as disclosed in the present invention for PKCα, PKCα-S9 and PKCα-S10, also have good biophysical properties (Table IV).

[4] = Fluorescence increase, phosphopeptide vs unphosphorylated peptide at 485 nm; assay type: physicochemical; settings: phosphopeptide / unphosphorylated peptide intensity at 485 nm, generally 10 mM Mg2+
Experimental: as §1
After peptide characterization, emission spectra were obtained for unphosphorylated and phosphorylated peptides under appropriate conditions. The spectra were generally acquired in the presence of 10 mM Mg^2+(although lower Mg^2+concentrations can and have been used as well) and either 0, 0.1 or 1 mM ATP in a preselected buffer (usually 20 mM HEPES, pH 7.4). Relying on the emission spectra the fold fluorescence differences were measured by dividing the fluorescence intensity of the phosphopeptide by the fluorescence intensity of its unphosphorylated counterpart at 485 nm. FIG. 2 depicts the fluorescence spectra of the phosphorylated and unphosphorylated peptides in the appropriate assay mixture: (A) emissions scans of PKCβI-1 (10 μM), 10 mM Mg(II), 3×; (B) emissions scans of PKCβI-1 (10 μM), 10 mM Mg(II), 0 mM ATP, 3×.; (C) fluorescence difference for PKCβI-1 (10 μM), 10 mM Mg(II), 3×; (D) fluorescence increase for PKCβI-1 (10 μM) at 10 mM Mg (II).

Substance	Km [1] [µM]	Km [2] [µM]	Vmax [2] [µmol/min/mg]	reactivity in cell lysates [3]	Fluorescence Increase [4] [x]	selectivity for PKCα ([2]; as determined by kinetic parameters, compared with PKCα-S1)
RRRKGS*FRRKA (RRRKGSFRRKA) [optimal PKCα peptide substrate selected from the literature]	3.8	–	–	–	–	–
Ac-Sox-P-G-(p)S F R R R-NH2 [PKCα-S1(P1), reference compound]	–	8.6 ± 2.9	5.9 ± 1.9	reactive toward many of the PKC isozymes	5.7	–
Ac-R R R-C(Sox)-G-(p)S F R R K A-NH2 [PKCα-S9(P9)]	–	0.093 ± 0.017	1.8 ± 0.12	–	3.5	much more selective for PKCα
